Results published in article PMC11101737.

Biological target: glucocorticoid receptor (GR) (UniProt P04150 1-777)
Experiment: EMSA

Sequence of glucocorticoid receptor (GR) (P04150 whole entry): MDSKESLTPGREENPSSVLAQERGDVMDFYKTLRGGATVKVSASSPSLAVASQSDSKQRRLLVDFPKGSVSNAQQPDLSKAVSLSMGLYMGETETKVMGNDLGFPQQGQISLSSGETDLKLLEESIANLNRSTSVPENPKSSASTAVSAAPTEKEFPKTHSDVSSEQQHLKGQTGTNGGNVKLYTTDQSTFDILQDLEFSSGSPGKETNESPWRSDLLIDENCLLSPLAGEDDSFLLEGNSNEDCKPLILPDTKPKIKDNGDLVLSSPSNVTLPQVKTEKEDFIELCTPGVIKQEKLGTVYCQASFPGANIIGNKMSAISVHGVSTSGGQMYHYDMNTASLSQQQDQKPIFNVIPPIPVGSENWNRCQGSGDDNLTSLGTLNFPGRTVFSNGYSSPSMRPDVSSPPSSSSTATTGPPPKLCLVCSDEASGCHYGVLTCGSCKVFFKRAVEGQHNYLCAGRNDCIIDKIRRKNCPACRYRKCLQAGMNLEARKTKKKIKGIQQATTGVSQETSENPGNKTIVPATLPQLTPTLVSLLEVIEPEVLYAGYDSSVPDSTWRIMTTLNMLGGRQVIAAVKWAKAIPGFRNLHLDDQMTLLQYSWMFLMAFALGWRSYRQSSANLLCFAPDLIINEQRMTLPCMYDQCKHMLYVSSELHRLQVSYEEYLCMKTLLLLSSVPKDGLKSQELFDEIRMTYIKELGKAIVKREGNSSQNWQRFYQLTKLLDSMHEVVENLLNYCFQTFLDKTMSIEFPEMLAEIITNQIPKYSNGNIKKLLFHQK

| Binder | binding result |
| --- | --- |
| AAV2 D-sequence (D) (dsDNA) DNA 1: CTCCATCACTAGGGGTTCCT DNA 2: AGGAACCCCTAGTGATGGAG | binds |
| GRE (dsDNA) DNA 1: CTAGGCTGTACAGGATGTTCTGCCTAG DNA 2: CTAGGCAGAACATCCTGTACAGCCTAG | binds |
